Legend:
Format in all cases: biochemical, Pseudomonas protegens
CCCC(=O)c1c(O)cc(O)cc1O = system: T1, CCCC(=O)c1c(O)cc(O)cc1O; assay: purified protein; conditions: disproportionation to 3a (DBPG), 100 mM potassium phosphate pH 7.5, 35 °C
T1 construct: PhlABC multi-subunit acyltransferase from codon-harmonized construct, recombinant in E. coli, purified enzyme; with 2,4-diacetylphloroglucinol biosynthesis acyltransferase subunit PhlA; 2,4-diacetylphloroglucinol biosynthesis acyltransferase subunit PhlB

CC(=O)c1c(O)cc(O)cc1O = system: T2, CC(=O)c1c(O)cc(O)cc1O; assay: purified protein; conditions: disproportionation to DAPG, 100 mM potassium phosphate pH 7.5, 35 °C
T2 construct: PhlABC multi-subunit acyltransferase from codon-harmonized construct, recombinant in E. coli, purified enzyme; with 2,4-diacetylphloroglucinol biosynthesis acyltransferase subunit PhlA; 2,4-diacetylphloroglucinol biosynthesis acyltransferase subunit PhlB

CCCC(=O)Oc1ccccc1 = system: T3, CCCC(=O)Oc1ccccc1; assay: HPLC assay of resorcinol acylation; conditions: 10 mM resorcinol as acceptor, 100 mM imidazole, potassium phosphate pH 7.5, 35 °C
T3 construct: PhlABC multi-subunit acyltransferase from codon-harmonized construct, recombinant in E. coli, purified enzyme; with 2,4-diacetylphloroglucinol biosynthesis acyltransferase subunit PhlA; 2,4-diacetylphloroglucinol biosynthesis acyltransferase subunit PhlB
Source text: (§1) HPLC assay of resorcinol acylation on PpATaseCH

COCC(=O)Oc1ccccc1 = system: T4, COCC(=O)Oc1ccccc1; assay: HPLC assay of resorcinol acylation; conditions: 10 mM resorcinol as acceptor, 100 mM imidazole, potassium phosphate pH 7.5, 35 °C
T4 construct: PhlABC multi-subunit acyltransferase from codon-harmonized construct, recombinant in E. coli, purified enzyme; with 2,4-diacetylphloroglucinol biosynthesis acyltransferase subunit PhlA; 2,4-diacetylphloroglucinol biosynthesis acyltransferase subunit PhlB
Source text: as §1

For “PpATaseCH (Pseudomonas protegens Pf-5; F148V)”, the Km (CCCC(=O)c1c(O)cc(O)cc1O) was 540 ± 70 µM, the Vmax (CCCC(=O)c1c(O)cc(O)cc1O) was 620 µM/min and the kcat (CCCC(=O)c1c(O)cc(O)cc1O) was 5.3 ± 0.6 s⁻¹. The kcat/Km (CCCC(=O)c1c(O)cc(O)cc1O) was 9900 ± 800 M⁻¹ s⁻¹, the Km (CC(=O)c1c(O)cc(O)cc1O) was 240 ± 90 µM and the Vmax (CC(=O)c1c(O)cc(O)cc1O) was 820 µM/min. The kcat (CC(=O)c1c(O)cc(O)cc1O) was 7.2 ± 1.9 s⁻¹, the kcat/Km (CC(=O)c1c(O)cc(O)cc1O) was 31000 ± 4000 M⁻¹ s⁻¹ and the Km (CCCC(=O)Oc1ccccc1) was 3200 ± 100 µM. For the same substance, the Vmax (CCCC(=O)Oc1ccccc1) was 40 µM/min, the kcat (CCCC(=O)Oc1ccccc1) was 0.012 ± 0.002 s⁻¹ and the kcat/Km (CCCC(=O)Oc1ccccc1) was 3.7 ± 0.6 M⁻¹ s⁻¹. For the same substance, the Km (COCC(=O)Oc1ccccc1) was 5000 ± 1000 µM, the Vmax (COCC(=O)Oc1ccccc1) was 580 µM/min and the kcat (COCC(=O)Oc1ccccc1) was 0.188 ± 0.016 s⁻¹. The kcat/Km (COCC(=O)Oc1ccccc1) was 38.7 ± 8.5 M⁻¹ s⁻¹.

From publication PMC6996649, “Rational Engineered C-Acyltransferase Transforms Sterically Demanding Acyl Donors” (ACS Catalysis, 2019)
